Data published in patent publication US20260092115A1 (Chugai, published 2026).
Positions count from the first letter of the chain named. Values belong to the binder of their own block, whether it stands above or below them.

Columns and labels:
[1] = biological target: T1, human CTLA4 (soluble analyte of the Biacore assays of Examples 3-3, 4 and 5) (human, UniProt P16410 36-161); test: SPR 37C, Ab on Protein G, 1000 nM CTLA4, ATP 10 uM
T1 construct: also called hCTLA4
T1 sequence: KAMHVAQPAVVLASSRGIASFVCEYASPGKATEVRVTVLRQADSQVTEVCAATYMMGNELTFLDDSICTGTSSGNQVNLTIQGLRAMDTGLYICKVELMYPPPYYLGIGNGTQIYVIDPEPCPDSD
Description: (§1) Next, by interacting with a human CTLA4 solution prepared in a running buffer containing ATP to the desired concentration, or a human CTLA4 solution prepared in a running buffer containing no ATP, the binding ability of the antibody to human CTLA4 in the presence or absence of ATP was evaluated. Chips were regenerated with 25 mM NaOH and 10 mM Glycine-HCl (pH 1.5), and assay was performed by repeatedly capturing antibodies. The dissociation constant of each antibody for CTLA4 was calculated using Biacore T200 Evaluation Software 2.0. Specifically, the binding rate constant ka (L/mol/s) and the dissociation rate constant kd (1/s) were calculated by global fitting of the sensorgrams obtained by the measurement, using a 1:1 Langmuir binding model. The dissociation constant KD (mol/L) was calculated from those values. Alternatively, the dissociation constant KD (mol/L) was calculated by the steady state model. In addition, the binding amount of CTLA4 per unit amount of antibody was calculated by correcting the amount of CTLA4 bound as calculated from the sensorgram obtained by the assay with the amount of antibody captured onto the chip surface.
(§2) Biacore T200 was used to evaluate the binding of the generated variants to ATP and to human CTLA4. The assay of binding to ATP was performed at 37° C. using 20 mM ACES (pH 7.4), 150 mM NaCl, 2 mM MgCl₂, 0.05% Tween20 as the running buffer. First, Sure Protein A (GE Healthcare) was immobilized onto a Series S Sensor Chip CM3 (GE Healthcare), and the antibodies were captured onto the chip by interacting an antibody solution prepared in the running buffer. Next, the binding ability to the antibody was evaluated by interacting with an ATP solution prepared in the running buffer. Chips were regenerated with 25 mM NaOH and 10 mM Glycine-HCl (pH 1.5) and assay was performed by repeatedly capturing antibodies. For the binding amount of each antibody to ATP, the binding amount of ATP per unit amount of antibody was calculated by correcting the amount of binding when ATP was injected at a concentration of 100 nM with the amount of antibody captured onto the chip surface. Binding to human CTLA4 was measured using Biacore T200 by the method described in Example 3-3.

[2] = biological target: T1, human CTLA4 (soluble analyte of the …); test: SPR 37C, Ab on Protein G, 1000 nM CTLA4, ATP 1 uM
Description: as §1, §2

[3] = biological target: T1, human CTLA4 (soluble analyte of the …); test: SPR 37C, Ab on Protein G, 1000 nM CTLA4, no ATP
Description: as §1, §2

[4] = biological target: T1, human CTLA4 (soluble analyte of the …); test: SPR 37C, Ab on Protein G, 1000 nM CTLA4, ATP 100 uM
Description: as §1, §2

[5] = biological target: T1, human CTLA4 (soluble analyte of the …); test: SPR 37C, ATP 10 µM
Description: as §1, with “Biacore T200 was used to measure the binding of the generated antibodies to human CTLA4. 20 mM ACES (pH 7.4), 150 mM NaCl, 2 mM MgCl₂, 0.05% Tween 20 with ATP added to the desired concentration was used as the running buffer, and the assay was performed at 37° C. First, Protein G (CALBIOCHEM) was immobilized onto a Series S Sensor Chip CM3 (GE Healthcare), and the antibodies were captured by interacting an antibody solution prepared in an ATP-free running buffer with the chip. Next,” for “Next,”, “In addition, the binding amount of CTLA4 per unit amount of antibody was calculated by correcting the amount of CTLA4 bound as calculated from the sensorgram obtained by the assay with the amount of antibody captured onto the chip surface.” left out

[6] = biological target: T2, mCTLA4-His (mouse, UniProt P09793 36-161); test: SPR 37C, ATP 100 µM
T2 construct: also called mouse CTLA4; Mouse CTLA4

- Binding to Human CTLA4 (amount per unit antibody) [1]: 0.189
- Binding to Human CTLA4 (amount per unit antibody) [2]: 0.138
- Binding to Human CTLA4 (amount per unit antibody) [3]: 0.022
- Binding to Human CTLA4 (amount per unit antibody) [4]: 0.193
- fold enhancement of binding ability against the parent antibody 04H1207-G1m/04L1086-lam1 [5]: ~10 fold
B1: 04H1389-G1m/04L1086-lam1 (antibody, human IgG1, lambda, V domains shown)
VH: EVQLVESGGGLVKPGGSLRLSCAASGFTFSSKTMNWVRQAPGKGLEWVSSISTQSHYIYYAESVKGRFTISRDNAKNSLYLQMNSLRAEDTAVYYCARYGKREDMLWVFDYWGQGTLVTVSS
VL: QSALTQPPSASGSPGQTVTISCDGPSTGVGDYNYVHWYQQHPGKAPKLMIYFTSKKPSGVPDRFSGSKSGNTASLTVSGLQAEDEADYFCQTYAAPLGPMFGGGTKLTVLG

- fold weaker binding ability to mouse CTLA4 than to human CTLA4 [6]: ~2 fold
B2: 04H1208-G1m/04L1407-k0MT (antibody, human IgG1, kappa, V domains shown)
VH: B1 VH with Q54R, H56G, E62R
VL: DIVMTQSPLSLPVTPGEPASISCDGPSTDVGDYNWVHWYQQKPGQAPRLLIYYTSSKPEGVPDRFSGSGSGTDFTLKISRVEAEDVGVYYCQTYAAPLGPTFGQGTKLEIKR
